The series has as its target SpYY1 (recombinant) (Strongylocentrotus purpuratus, UniProt A0A7M7RHL1 1-400). The series can be described thus: EMSA; 250 nM protein, 10 nM probe; 50 mM NaCl, 50 mM Tris-HCl pH 7.5, 2 mM MgCl2, 1 mM DTT, 5% glycerol, room temperature 20 min; 10 nM probe; recombinant protein 0.5 uM (Methods) or 250 nM (Fig. 4 legend); lysate reactions with poly-dIdC (DNA) or yeast tRNA (RNA). The settings on record: tags: His tag and EK site from pRSetB (text says C-terminal). For orientation: A gel shift assay detects complexes by their altered migration in electrophoresis.

Sequence of SpYY1 (recombinant) (A0A7M7RHL1 entry or part of it): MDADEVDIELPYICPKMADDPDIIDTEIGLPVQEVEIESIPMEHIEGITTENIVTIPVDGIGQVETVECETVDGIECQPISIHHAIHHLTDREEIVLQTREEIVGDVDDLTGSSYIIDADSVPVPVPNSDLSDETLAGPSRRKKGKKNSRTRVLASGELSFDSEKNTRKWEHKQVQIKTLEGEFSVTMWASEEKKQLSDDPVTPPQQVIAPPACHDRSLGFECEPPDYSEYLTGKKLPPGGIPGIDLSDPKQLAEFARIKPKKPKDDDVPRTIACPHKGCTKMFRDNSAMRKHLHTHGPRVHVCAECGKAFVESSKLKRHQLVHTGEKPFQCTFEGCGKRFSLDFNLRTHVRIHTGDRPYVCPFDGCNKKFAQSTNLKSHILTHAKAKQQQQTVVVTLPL

For UUUUUUUUUUUUUUUUUUUU (ssRNA) [U(20) RNA], the binding result (label: 5'-32P when probe, single strand) is “binds”.

B1: YY1 consensus DNA element (YY1C) (dsDNA)
DNA 1: CTAGGCGCTCCCCGGCCATCTTGGCGGCTGGT
DNA 2: ACCAGCCGCCAAGATGGCCGGGGAGCGCCTAG
For the molecule B1, the binding result (label: 32P end-fill when probe) was “binds”.

Source of the values: PMC5966398, “Conserved RNA binding activity of a Yin-Yang 1 homologue in the ova of the purple sea urchin Strongylocentrotus purpuratus”.
